{
  "source": "patent US20220153864A1",
  "about": "(Pieris, published 2022)",
  "binders": {"B1": {"name": "fusion protein SEQ ID NOs: 87 and 82 (bispecific antibody, human IgG4 S228P, kappa, F234A L235A)", "heavy": "not shown", "light": "DVVMTQSPLSLPVTPGEPASISCRSSQSLVHSNRNTYLHWYLQKPGQSPQLLIYKVSNRFSGVPDRFSGSGSGTDFTLKISRVEAEDVGVYYCSQNTHVPPTFGQGTKLEIKRTVAAPSVFIFPPSDEQLKSGTASVVCLLNNFYPREAKVQWKVDNALQSGNSQESVTEQDSKDSTYSLSSTLTLSKADYEKHKVYACEVTHQGLSSPVTKSFNRGEC", "notes": "also called exemplary fusion protein"}},
  "key": {"[1]": {"target": "T1, huCD137-His (recombinant human CD137 with C-terminal polyhistidine tag, R&D Systems) (human, UniProt Q07011 24-186)", "T1 construct": "also called biotinylated huCD137-His; not shown: C-terminal polyhistidine tag", "assay": "dual-binding ELISA: huCD137-His coated, fusion titrated, detection with biotinylated huGPC3", "protocol": "Recombinant huCD137-His (R&D Systems) in PBS (1 μg/mL) was coated overnight on microtiter plates at 4° C. The plates were washed five times after each incubation step with 100 μL PBS-0.05% T. The plates were blocked with PBS-0.1% T-2% BSA for 1 h at room temperature and subsequently washed again. Different concentrations of tested fusion proteins were added to the wells and incubated for 1 h at room temperature, followed by a wash step. Subsequently, biotinylated huGPC3 was added at a constant concentration of 1 μg/mL in PBS-0.1% T-2% BSA for 1 h. After washing, a 1:5000 dilution of ExtrAvidin-HRP (Sigma-Aldrich) in PBS-0.1% T-2% BSA was added to the wells and incubated for 1 h. After an additional wash step, fluorogenic HRP substrate (QuantaBlu, Thermo) was added to each well, and the fluorescence intensity was detected using a fluorescence microplate reader.\nExemplary dual binding data are shown in FIG. 3, together with the fit curves resulting from a 1:1 sigmoidal binding fit, where the EC₅₀ value and the maximum signal were free parameters, and the slope was fixed to unity."}, "[2]": {"target": "recombinant cynomolgus GPC3 (cyGPC3) (R&D Systems) (cynomolgus, UniProt A0A2K5VK50 24-558)", "assay": "SPR (Biacore T200), binder captured by anti-human IgG Fc, cyGPC3 as analyte, 1:1 model", "protocol": "The anti-human IgG Fc antibody (GE Healthcare) was immobilized on a CM5 sensor chip using standard amine chemistry: the carboxyl groups on the chip were activated using 1-ethyl-3-(3-dimethylaminopropyl)-carbodiimide (EDC) and N-hydroxysuccinimide (NHS). Subsequently, anti-human IgG Fc antibody solution (GE Healthcare) at a concentration of 25 μg/mL in 10 mM sodium acetate (pH 5.0) was applied at a flow rate of 5 μL/min until an immobilization level of 6000-10000 resonance units (RU) was achieved. Residual non-reacted NHS-esters were blocked by passing a solution of 1M ethanolamine across the surface. The reference channel was treated in an analogous manner. Subsequently, testing fusion proteins (SEQ ID NOs: 87 and 82 and CD137Ac1-Fusion 1) or the GPC3 antibody as included in the fusion protein (SEQ ID NOs: 81 and 82) at 0.2 μg/ml in HBS-EP+ buffer was captured by the anti-human IgG-Fc antibody at the chip surface for 180 s at a flow rate of 10 μL/min. After each capture step, the needle was washed.\nThe binding assay was carried out with a contact time of 180 s, a dissociation time of 900 s, and a flow rate of 30 μL/min. After each injection, the needle was cleaned with 40 mM NaOH+20% isopropanol. All measurements were performed at 25° C. […] Prior to the protein measurements, three startup cycles were performed for conditioning purposes. Data were evaluated with Biacore T200 Evaluation software (v2.0). Double referencing was used and the 1:1 binding model was used to fit the raw data."}},
  "data": [
    {"binder": "B1", "values": [
      {"measurement": "EC50", "setting": "[1]", "value": 4.2, "unit": "nM"},
      {"measurement": "Kd", "setting": "[2]", "value": 0.936, "unit": "nM"},
      {"measurement": "koff", "setting": "[2]", "value": 0.000275, "unit": "s⁻¹"},
      {"measurement": "kon", "setting": "[2]", "value": 293000, "unit": "M⁻¹ s⁻¹"}
    ]}
  ]
}
